The text below walks through data of PMC9251887.

This assay deals with GFP-Joka2 (tomato (SlJoka2)). Briefly: FRET or BRET; FRET-FLIM in N. benthamiana leaves; donor GFP-Joka2, acceptors RFP fusions; GFP lifetime measured in GFP-JOKA2 aggregates. On the technique in general: BRET reads energy transfer from a luciferase to a nearby fluorophore.

RFP-XopL (natural protein): the reduction of the donor's fluorescence lifetime amounted to 0.1 ns.
